Source: publication PMC5995566
Like-named read-outs stand apart in the source and are kept apart here.

Columns and labels:
human S100A6 (human) [1] = experiment: ITC
human S100A6 (human) [2] = experiment: ITC; remark: listed apart in the source

Sequence of peptide from Siah-interacting protein (SIP) (Q9HB71 188-218): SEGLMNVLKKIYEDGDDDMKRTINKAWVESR

Kd (human S100A6 (human) [1]): 26 µM
dH (human S100A6 (human) [1]): 2.9 kcal/mol
fx comp (human S100A6 (human) [1]): 1.5
Kd (human S100A6 (human) [2]): 20 µM
Substance: peptide from Siah-interacting protein (SIP) (from UniProt Q9HB71 188-218)
